# Source: paper PMC8991989
# Target: Epidermal growth factor receptor (EGFR), labelled for MST (UniProt P00533)
# Assay: MST
substance,measurement,value
"FIP-nha, a fungal immunomodulatory protein from Nectria haematococca (natural protein)",Kd,15.5 µM
